In assay [1] the target is RNC_(1-510mut): stalled 70S ribosome:nascent chain complex with β-galactosidase 1-510 carrying I141N and G353D (E. coli). Put plainly: co-sedimentation; RNC first incubated with GroEL and GroES (20 min, 30 °C), then 1 mM ATP, 1 mM BeSO4, 10 mM NaF (10 min, 30 °C); 35% sucrose cushion; pellet by immunoblot (GroEL, GroES, S2) and iBAQ mass spectrometry. In general terms: In western blotting, separated proteins are transferred to a membrane and probed.

The target is the same in assay [2]. Put plainly: co-sedimentation; RNC with GroEL, no GroES and no ATP/BeFx; pellet quantified by iBAQ mass spectrometry, normalised to the average of the ribosomal proteins; n = 3.
For assay [3], the target named is T1, Ribosomal stalk protein L7/L12 (E. coli, UniProt P0A7K2 1-121).
T1 construct: ribosomal protein L7/L12, E. coli, as part of the ribosome; Cross-linked while part of the 70S ribosome or RNC; also called stalk complex; source: endogenous, in E. coli 70S ribosomes (bought: NEB) and in RNCs purified from E. coli
As to the kind of experiment: cross-linking; XL-MS: RNC_(1-510mut) with 5 µM GroEL and 10 µM GroES, then 1 mM ATP, 1 mM BeSO4, 10 mM NaF; 1 mM DSBU 1 h at 25 °C. The following applies: both partners purified.

“GroEL (V381W, A384W, V387W) (from UniProt P0A6F5 2-525) (natural protein)”: the values for the stoichiometry N (GroEL subunits per ribosome) in assay [1] and in assay [2] were 6.7 and 9.8, respectively.

B1: GroES (L49W) (natural protein, E. coli, UniProt P0A6F9 1-97, looked up)
chain: MNIRPLHDRVIVKRKEVETKSAGGIVLTGSAAAKSTRGEVLAVGNGRIWENGEVKPLDVKVGDIVIFNDGYGVKSEKIDNEEVLIMSESDILAIVEA
notes: GroES, E. coli co-chaperonin subunit (10.5 kDa as printed); tryptophan mutant used for quantification; also called GroES 7-mer; source: E. coli BL21(DE3), purified (StrepTactin, 3C cleavage, Superdex 200, GSTrap); not shown: double StrepII, N-terminal, cleaved
As for B1, in assay [3], the binding result is reported as “binds”.

The values above are taken from PMC12615815, “GroEL/ES chaperonin unfolds then encapsulates a nascent protein on the ribosome” (Nature Communications, 2025).
